From US20100204147A1, “Methods For Delivering Thymosin Beta 4, Analogues, Isoforms and Other Derivatives” (REGENERX BIOPHARMACEUTICALS, INC., priority 2003, published 2010)

Columns and labels:
Assay in all cases: cell-based or functional assay
[1] = target: Fibrin (made from human fibrinogen with bovine thrombin) (human) (UniProt P02671)
[2] = target: Human fibrinogen depleted of plasminogen, fibronectin and von Willebrand factor (human) (UniProt P02671)
[3] = target: Recombinant γ-module comprising residues 148-411 of the human fibrinogen γ chain (human) (UniProt P02679)

Substance	degree of factor XIIIa-mediated incorporation after 4 hours (spectrophotometric) (moles per mole) [1]	degree of factor XIIIa-mediated incorporation after 4 hours (spectrophotometric) (moles per mole) [2]	apparent Michaelis constant (Km) for the reaction of incorporation by factor XIIIa [3] [µM]
FITC-labeled thymosin β4 (from UniProt P62328 2-44) (peptide)	0.4	0.2	
Synthetic thymosin β4 (from UniProt P62328 2-44) (peptide)			183
